In patent publication US20250163145A1 (SHIONOGI, published 2025):
Positions count from the first letter of the chain named. In names and notes the source's numbering stands. Where no end group is shown, it is not given here.

B1: humanized 15H11 CDR graft IGKV3-11 / IGHV7-4-1 (R94P) (antibody, human IgG4 S228P, kappa, V domains shown)
VH: QVQLVQSGSELKKPGASVKVSCKASGYTFTDYNMHWVRQAPGQGLEWMGRINPKNGVINSNEKFKDRFVFSLDTSVSTAYLQISSLKAEDTAVYYCAPSYYGGNTDAYWGQGTLVTVSS
VL: EIVLTQSPATLSLSPGERATLSCRASESVDNYGISFMNWYQQKPGQAPRLLIYAASSQGSGIPARFSGSGSGTDFTLTISSLEPEDFAVYYCQQSKEFPWTFGGGTKVEIKR
notes: hIgG4Pro/hIgK
B2: humanized 15H11 CDR graft IGKV3-20 / IGHV7-4-1 (R94P) (antibody, human IgG4 S228P, kappa, V domains shown)
VH: B1 VH
VL: B1 VL with S81R
notes: hIgG4Pro/hIgK
B3: humanized 15H11 CDR graft IGKV7-3 / IGHV7-4-1 (R94P) (antibody, human IgG4 S228P, kappa, V domains shown)
VH: B1 VH
VL: DIVLTQSPASLAVSPGQRATITCRASESVDNYGISFMNWYQQKPGQPPKLLIYAASSQGSGVPARFSGSGSGTDFTLTINPVEANDTANYYCQQSKEFPWTFGGGTKVEIKR
notes: hIgG4Pro/hIgK
B4: humanized 15H11 CDR graft IGKV1-39 / IGHV1-2 (R94P) (antibody, human IgG4 S228P, kappa, V domains shown)
VH: QVQLVQSGAEVKKPGASVKVSCKASGYTFTDYNMHWVRQAPGQGLEWMGRINPKNGVINSNEKFKDRVTMTRDTSISTAYMELSRLRSDDTAVYYCAPSYYGGNTDAYWGQGTLVTVSS
VL: DIQMTQSPSSLSASVGDRVTITCRASESVDNYGISFMNWYQQKPGKAPKLLIYAASSQGSGVPSRFSGSGSGTDFTLTISSLQPEDFATYYCQQSKEFPWTFGGGTKVEIKR
notes: hIgG4Pro/hIgK
B5: humanized 15H11 CDR graft IGKV1-39 / IGHV7-4-1 (R94P) (antibody, human IgG4 S228P, kappa, V domains shown)
VH: B1 VH
VL: B4 VL
notes: hIgG4Pro/hIgK
B6: humanized 15H11 CDR graft IGKV3-11 / IGHV1-2 (R94P) (antibody, human IgG4 S228P, kappa, V domains shown)
VH: B4 VH
VL: B1 VL
notes: hIgG4Pro/hIgK
B7: humanized 15H11 CDR graft IGKV3-11 / IGHV1-2 (antibody, human IgG4 S228P, kappa, V domains shown)
VH: B4 VH with P98R
VL: B1 VL
notes: hIgG4Pro/hIgK
B8: humanized 15H11 CDR graft IGKV3-20 / IGHV1-18 (R94P) (antibody, human IgG4 S228P, kappa, V domains shown)
VH: B4 VH with R72T, I76T, S84R, R85S
VL: B1 VL with S81R
notes: hIgG4Pro/hIgK
B9: humanized 15H11 CDR graft IGKV3-11 / IGHV1-18 (R94P) (antibody, human IgG4 S228P, kappa, V domains shown)
VH: B4 VH with R72T, I76T, S84R, R85S
VL: B1 VL
notes: hIgG4Pro/hIgK
B10: humanized 15H11 CDR graft IGKV1-39 / IGHV1-3 (R94P) (antibody, human IgG4 S228P, kappa, V domains shown)
VH: B4 VH with G44R, M70I, I76A, R85S, D89E
VL: B4 VL
notes: hIgG4Pro/hIgK
B11: humanized 15H11 CDR graft IGKV3-20 / IGHV1-46 (R94P) (antibody, human IgG4 S228P, kappa, V domains shown)
VH: B4 VH with I76T, A79V, R85S, D89E
VL: B1 VL with S81R
notes: hIgG4Pro/hIgK
B12: humanized 15H11 CDR graft IGKV1-39 / IGHV1-2 (antibody, human IgG4 S228P, kappa, V domains shown)
VH: B4 VH with P98R
VL: B4 VL
notes: hIgG4Pro/hIgK
B13: humanized 15H11 CDR graft IGKV3-20 / IGHV1-3 (R94P) (antibody, human IgG4 S228P, kappa, V domains shown)
VH: B4 VH with G44R, M70I, I76A, R85S, D89E
VL: B1 VL with S81R
notes: hIgG4Pro/hIgK
B14: humanized 15H11 CDR graft IGKV1-39 / IGHV1-18 (R94P) (antibody, human IgG4 S228P, kappa, V domains shown)
VH: B4 VH with R72T, I76T, S84R, R85S
VL: B4 VL
notes: hIgG4Pro/hIgK
B15: humanized 15H11 CDR graft IGKV3-11 / IGHV1-3 (R94P) (antibody, human IgG4 S228P, kappa, V domains shown)
VH: B4 VH with G44R, M70I, I76A, R85S, D89E
VL: B1 VL
notes: hIgG4Pro/hIgK
B16: humanized 15H11 CDR graft IGKV3-11 / IGHV1-46 (R94P) (antibody, human IgG4 S228P, kappa, V domains shown)
VH: B4 VH with I76T, A79V, R85S, D89E
VL: B1 VL
notes: hIgG4Pro/hIgK
B17: humanized 15H11 CDR graft IGKV1-39 / IGHV1-46 (R94P) (antibody, human IgG4 S228P, kappa, V domains shown)
VH: B4 VH with I76T, A79V, R85S, D89E
VL: B4 VL
notes: hIgG4Pro/hIgK
B18: humanized 15H11 CDR graft IGKV3-20 / IGHV1-2 (R94P) (antibody, human IgG4 S228P, kappa, V domains shown)
VH: B4 VH
VL: B1 VL with S81R
notes: hIgG4Pro/hIgK
B19: humanized 15H11 CDR graft IGKV3-20 / IGHV1-2 (antibody, human IgG4 S228P, kappa, V domains shown)
VH: B4 VH with P98R
VL: B1 VL with S81R
notes: hIgG4Pro/hIgK
B20: h15H11-37 (antibody, human IgG4 S228P, kappa, V domains shown)
VH: B1 VH with Q43R, G44S, T105Q
VL: B3 VL with A25V, E27D, M37L, Y40F, V82M
notes: hIgG4Pro/hIgK
B21: h15H11-43 (antibody, human IgG4 S228P, kappa, V domains shown)
VH: B1 VH with Q43R, G44S
VL: B3 VL with I34F, Y40F, V82M
notes: hIgG4Pro/hIgK
B22: h15H11-42 (antibody, human IgG4 S228P, kappa, V domains shown)
VH: B1 VH with Q43R, G44S, N104K
VL: B3 VL with Y40F, V82M
notes: hIgG4Pro/hIgK
B23: h15H11-39 (antibody, human IgG4 S228P, kappa, V domains shown)
VH: B1 VH with Q43R, G44S, S60Y
VL: B3 VL with E27D, M37L, Y40F, V82M
notes: hIgG4Pro/hIgK
B24: h15H11-38 (antibody, human IgG4 S228P, kappa, V domains shown)
VH: B1 VH with Q43R, G44S, N59K
VL: B3 VL with A25V, E27D, M37L, Y40F, V82M
notes: hIgG4Pro/hIgK
B25: h15H11-40 (antibody, human IgG4 S228P, kappa, V domains shown)
VH: B1 VH with Q43R, G44S, S60L
VL: B3 VL with A25V, E27D, M37L, Y40F, V82M
notes: hIgG4Pro/hIgK
B26: h15H11-41 (antibody, human IgG4 S228P, kappa, V domains shown)
VH: B1 VH with Q43R, G44S, Y101F, T105S
VL: B3 VL with E27D, M37L, Y40F, V82M
notes: hIgG4Pro/hIgK

Target: T1, epitope peptide Cys-CE3C long (also: biotin label, site not given here)
T1 peptide: CSVNVDKQPKYEYSL
Assay: ELISA, supernatant IgG on anti-human IgG plate, biotin-peptide + streptavidin-HRP; titer per unit IgG
Experimental: The amount of IgG in the supernatant was determined by the following method. To evaluate the amount of IgG in the supernatant, the culture supernatant was added to an anti-human IgG antibody (manufactured by Jackson) immobilized plate, after reacting at room temperature for 3 hours, washed twice with ELISA wash buffer, and HRP-labeled anti-human IgG antibody (manufactured by Jackson) was reacted at 4° C. overnight. After washing twice with ELISA wash buffer and developing color by adding TMB-Substrate Chromogen (manufactured by Thermo Fisher Scientific), the reaction was stopped with an equal volume of 0.5N sulfuric acid, and the absorbance at 450 nm was measured to calculate (A) the dilution factor of the culture supernatant at which the OD was 1.0.
The titer of IgG in the supernatant against the epitope peptide was determined by the following method. In order to evaluate the titer of IgG in the supernatant against epitope peptides, the culture supernatant was added to an anti-human IgG antibody (manufactured by Jackson) immobilized plate, reacted for 3 hours at room temperature, and then washed twice with ELISA wash buffer, and a biotin-labeled epitope peptide (Cys-CE3C long: SEQ ID NO: 13) and Streptavidin-HRP (manufactured by PIERCE) were added and reacted overnight at 4° C. After washing twice with ELISA wash buffer and developing color by adding TMB-Substrate Chromogen (manufactured by Thermo Fisher Scientific), the reaction was stopped with an equal volume of 0.5N sulfuric acid, the absorbance at 450 nm was measured to calculate (B) the dilution ratio of the culture supernatant at which the OD was 1.0.
The titer (ratio) against the epitope peptide (Cys-CE3C long: SEQ ID NO: 13) per unit IgG amount was calculated as (B)/(A).

Compared with B1, B2 is lower in “(B)/(A) titer (ratio) against the epitope peptide per unit IgG amount” value (“(B)/(A) titer (ratio) … per unit IgG amount” below): 0.18 for the first, 0.15 for the second.

Going from B3 to B4, the “(B)/(A) titer (ratio) … per unit IgG amount” value falls from 0.26 to 0.14.

Going from B5 to B6, the “(B)/(A) titer (ratio) … per unit IgG amount” value falls from 0.16 to 0.15.

First: B7
Second: B8
The “(B)/(A) titer (ratio) … per unit IgG amount” value of the first is lower: 0.05 for the first, 0.13 for the second.

Going from B9 to B10, the “(B)/(A) titer (ratio) … per unit IgG amount” value falls from 0.15 to 0.12.

First: B11
Second: B12
The “(B)/(A) titer (ratio) … per unit IgG amount” value of the first is higher: 0.09 for the first, 0.03 for the second.

Going from B13 to B14, the “(B)/(A) titer (ratio) … per unit IgG amount” value rises from 0.12 to 0.13.

B15 and B16 are the same in “(B)/(A) titer (ratio) … per unit IgG amount” value: 0.12 for the first, 0.12 for the second.

First: B17
Second: B18
The “(B)/(A) titer (ratio) … per unit IgG amount” value of the first is lower: 0.09 for the first, 0.12 for the second.

For B19, the “(B)/(A) titer (ratio) … per unit IgG amount” value was 0.04.

Target: T1, epitope peptide Cys-CE3C long
Assay: competitive ELISA, unlabeled vs biotin-labeled peptide, antibody on anti-human IgG plate
Experimental: A diluted solution of the obtained recombinant humanized antibody, a biotin-labeled immunogen peptide, and Streptavidin-HRP (manufactured by PIERCE) were added to an anti-human IgG antibody-immobilized plate, and reacted overnight at 4° C. […] Next, a recombinant human antibody at the dilution rate, a biotin-labeled immunogen peptide, and Streptavidin-HRP (manufactured by PIERCE) were added. At the same time, a dilution series of unlabeled immunogenic peptide was added and reacted overnight at 4° C. After washing twice with ELISA wash buffer, TMB-Substrate Chromogen (manufactured by Thermo Fisher Scientific) was added to develop color, the reaction was stopped with an equal amount of 0.5N sulfuric acid, and the absorbance at 450 nm was measured. The concentration of the unlabeled peptide which attenuated the signal of the biotin-labeled peptide by half was defined as the affinity (IC50).

B20 and B21 are within 1.5-fold of each other in IC50: 1.04 nM for the first, 0.83 nM for the second.

B22 and B23 are within 1.5-fold of each other in IC50: 0.83 nM for the first, 1.05 nM for the second.

B24 and B25 are within 1.5-fold of each other in IC50: 1.04 nM for the first, 1.06 nM for the second.

Work on B26 yielded an IC50 of 1.07 nM.
